Results: the supplement of paper PMC11316812
± gives the standard deviation of the averaged measurements.

Legend:
[1] = system: MCF7; experiment: percentage of EdU-negative (G0-arrested) nuclei per well, 72 h; higher = more G0 arrest; settings: reference: sequence is the full UniProt precursor, the tested protein was the secreted form or ectodomain
[2] = system: hTERT-HMEC; experiment: as above; settings: reference: sequence is the full UniProt precursor, the tested protein was the secreted form or ectodomain
[3] = protein concentration 0.0215 µM
[4] = protein concentration 0.0357143 µM
[5] = protein concentration 0.357143 µM
[6] = protein concentration 0.01325 µM
[7] = protein concentration 0.1325 µM
[8] = protein concentration 0.0225 µM
[9] = protein concentration 0.0171429 µM
[10] = protein concentration 0.171429 µM
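Note: secreted proteins added to cultured cells, EdU pulse at the end, nuclei found by Hoechst imaging, EdU status from nuclear versus surrounding ring intensity ratio, PBS as neutral control.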

MTPILTVLICLGLSLGPRTHVQAGHLPKPTLWAEPGSVITQGSPVTLRCQGGQETQEYRLYREKKTALWITRIPQELVKKGQFPIPSITWEHAGRYRCYYGSDTAGRSESSDPLELVVTGAYIKPTLSAQPSPVVNSGGNVILQCDSQVAFDGFSLCKEGEDEHPQCLNSQPHARGSSRAIFSVGPVSPSRRWWYRCYAYDSNSPYEWSLPSDLLELLVLGVSKKPSLSVQPGPIVAPEETLTLQCGSDAGYNRFVLYKDGERDFLQLAGAQPQAGLSQANFTLGPVSRSYGGQYRCYGAHNLSSEWSAPSDPLDILIAGQFYDRVSLSVQPGPTVASGENVTLLCQSQGWMQTFLLTKEGAADDPWRLRSTYQSQKYQAEFPMGPVTSAHAGTYRCYGSQSSKPYLLTHPSDPLELVVSGPSGGPSSPTTGPTSTSGPEDQPLTPTGSDPQSGLGRHLGVVIGILVAVILLLLLLLLLFLILRHRRQGKHWTSTQRKADFQHPAGAVGPEPTDRGLQWRSSPAADAQEENLYAAVKHTQPEDGVEMDTRSPHDEDPQAVTYAEVKHSRPRREMASPPSPLSGEFLDTKDRQAEEDRQMDTEAAASEAPQDVTYAQLHSLTLRREATEPPPSQEGPSPAVPSIYATLAIH [A0A0B4J1W1]
percentage of EdU-negative [1, 3]: 23.2 ± 2.5% | percentage of EdU-negative ([1]; protein concentration 0.215 µM): 25.3 ± 0.95% | percentage of EdU-negative [2, 3]: 4.85 ± 0.58% | percentage of EdU-negative ([2]; protein concentration 0.215 µM): 5.72 ± 0.22%

MTPPERLFLPRVCGTTLHLLLLGLLLVLLPGAQGLPGVGLTPSAAQTARQHPKMHLAHSTLKPAAHLIGDPSKQNSLLWRANTDRAFLQDGFSLSNNSLLVPTSGIYFVYSQVVFSGKAYSPKATSSPLYLAHEVQLFSSQYPFHVPLLSSQKMVYPGLQEPWLHSMYHGAAFQLTQGDQLSTHTDGIPHLVLSPSTVFFGAFAL
percentage of EdU-negative [1, 4]: 35.3 ± 2.4% | percentage of EdU-negative [1, 5]: 42.8 ± 0.91% | percentage of EdU-negative [2, 4]: 6.4 ± 0.43% | percentage of EdU-negative [2, 5]: 6.94 ± 0.51%

MTPPKLRASLSPSLLLLLSGCLLAAARREKGAASNVAEPVPGPTGGSSGRFLSPEQHACSWQLLLPAPEAAAGSELALRCQSPDGARHQCAYRGHPERCAAYAARRAHFWKQVLGGLRKKRRPCHDPAPLQARLCAGKKGHGAELRLVPRASPPARPTVAGFAGESKPRARNRGRTRERASGPAAGTPPPQSAPPKENPSERKTNEGKRKAALVPNEERPMGTGPDPDGLDGNAELTETYCAEKWHSLCNFFVNFWNG [Q8TAT2]
percentage of EdU-negative [1, 6]: 25.1 ± 0.15% | percentage of EdU-negative [1, 7]: 27.7 ± 1.3% | percentage of EdU-negative [2, 6]: 4.87 ± 0.1% | percentage of EdU-negative [2, 7]: 6.22 ± 0.9%

MTPPPPGRAAPSAPRARVPGPPARLGLPLRLRLLLLLWAAAASAQGHLRSGPRIFAVWKGHVGQDRVDFGQTEPHTVLFHEPGSSSVWVGGRGKVYLFDFPEGKNASVRTVNIGSTKGSCLDKRDCENYITLLERRSEGLLACGTNARHPSCWNLVNGTVVPLGEMRGYAPFSPDENSLVLFEGDEVYSTIRKQEYNGKIPRFRRIRGESELYTSDTVMQNPQFIKATIVHQDQAYDDKIYYFFREDNPDKNPEAPLNVSRVAQLCRGDQGGESSLSVSKWNTFLKAMLVCSDAATNKNFNRLQDVFLLPDPSGQWRDTRVYGVFSNPWNYSAVCVYSLGDIDKVFRTSSLKGYHSSLPNPRPGKCLPDQQPIPTETFQVADRHPEVAQRVEPMGPLKTPLFHSKYHYQKVAVHRMQASHGETFHVLYLTTDRGTIHKVVEPGEQEHSFAFNIMEIQPFRRAAAIQTMSLDAERRKLYVSSQWEVSQVPLDLCEVYGGGCHGCLMSRDPYCGWDQGRCISIYSSERSVLQSINPAEPHKECPNPKPDKAPLQKVSLAPNSRYYLSCPMESRHATYSWRHKENVEQSCEPGHQSPNCILFIENLTAQQYGHYFCEAQEGSYFREAQHWQLLPEDGIMAEHLLGHACALAASLWLGVLPTLTLGLLVH
percentage of EdU-negative [1, 8]: 24.7 ± 2.4% | percentage of EdU-negative ([1]; protein concentration 0.225 µM): 25.6 ± 1.6% | percentage of EdU-negative [2, 8]: 4.66 ± 0.25% | percentage of EdU-negative ([2]; protein concentration 0.225 µM): 5.49 ± 0.49%

MTPPRLFWVWLLVAGTQGVNDGDMRLADGGATNQGRVEIFYRGQWGTVCDNLWDLTDASVVCRALGFENATQALGRAAFGQGSGPIMLDEVQCTGTEASLADCKSLGWLKSNCRHERDAGVVCTNETRSTHTLDLSRELSEALGQIFDSQRGCDLSISVNVQGEDALGFCGHTVILTANLEAQALWKEPGSNVTMSVDAECVPMVRDLLRYFYSRRIDITLSSVKCFHKLASAYGARQLQGYCASLFAILLPQDPSFQMPLDLYAYAVATGDALLEKLCLQFLAWNFEALTQAEAWPSVPTDLLQLLLPRSDLAVPSELALLKAVDTWSWGERASHEEVEGLVEKIRFPMMLPEELFELQFNLSLYWSHEALFQKKTLQALEFHTVPFQLLARYKGLNLTEDTYKPRIYTSPTWSAFVTDSSWSARKSQLVYQSRRGPLVKYSSDYFQAPSDYRYYPYQSFQTPQHPSFLFQDKRVSWSLVYLPTIQSCWNYGFSCSSDELPVLGLTKSGGSDRTIAYENKALMLCEGLFVADVTDFEGWKAAIPSALDTNSSKSTSSFPCPAGHFNGFRTVIRPFYLTNSSGVD
percentage of EdU-negative [1, 9]: 23.8 ± 3.7% | percentage of EdU-negative [1, 10]: 27.9 ± 1.7% | percentage of EdU-negative [2, 9]: 6.12 ± 0.82% | percentage of EdU-negative [2, 10]: 8.84 ± 1.8%
